Results published in the supplement of paper PMC10126150.
± gives the standard deviation of the averaged measurements.

Tested on: ATP
Assay: switch fluorescence ratio, 500 uM ATP over buffer (Cy3 cluster intensity, sum of 5 cycles each) (fold (ratio)); higher = stronger signal-on switching upon ATP binding; sequences stand for … in TCGTCGGCAGCGTCAGATGTGTATAAGAGACAGTTTTTTTTTTTTTTTTTTTTTTTTT…TC
Details: aptamer strand: ATP DNA aptamer (quencher-CACCTGGGGGAGTATTGCGGAGGAAGG + anchor), 100 nM annealed; ATP concentration: 500 uM
Outline: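 Clusters with intensities outside 100-1000 RFU were excluded. The remaining Cy3-labelled switching-strand clusters on a modified Illumina MiSeq flow-cell had been annealed to 100 nM quencher-labelled ATP aptamer and imaged in selection buffer, then after 15 min with 500 uM ATP at 22 °C, for five cycles separated by NaOH stripping and re-annealing. The fluorescence ratio, averaged per switch-domain sequence, is each cluster's summed target-cycle Cy3 intensity over its summed buffer-cycle Cy3 intensity.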
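Note: ATP exposure 15 min at 22 °C before imaging.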

Sequence	switch fluorescence ratio
ATAATCTGTG	0.986 ± 0.0023
ATAATGACGT	1.01 ± 0.049
ATAATGGTGT	1.03 ± 0.029
ATAATTAACG	0.986 ± 0.034
ATAATTAAGA	0.992 ± 0.014
ATAATTAGTA	0.9455 ± 0.0079
ATAATTCGGT	0.985 ± 0.025
ATAATTTAGT	0.982 ± 0.028
ATAATTTTAC	1.07 ± 0.041
ATAATTTTCA	1.01 ± 0.03
ATAATTTTGG	0.973 ± 0.017
ATACAAGGCT	1.02 ± 0.03
ATACACATAG	1.04 ± 0.014
ATACGAGAAT	1 ± 0.023
ATACGAGGGC	1.01 ± 0.028
ATACGAGTGC	1.01 ± 0.012
ATACGATATT	1.142 ± 0.0033
ATACGATTGG	0.9674 ± 0.0044
ATACGCAGCG	0.998 ± 0.01
ATACGGATGG	0.984 ± 0.033
ATACGGGAGT	1 ± 0.0018
ATACGGGATT	1.044 ± 0.0064
ATACGGGGTA	1.03 ± 0.054

Sequence	switch fluorescence ratio
ATACGGTAAT	1.16 ± 0.052
ATACGTCGGC	0.984 ± 0.046
ATACGTTCGG	1.01 ± 0.0015
ATACTCGCGT	1.014 ± 0.01
ATACTCTTAT	1.03 ± 0.04
ATACTGCTCT	0.968 ± 0.059
ATACTGGAAA	1.011 ± 0.01
ATACTGGGAT	1.031 ± 0.0015
ATACTTAAGG	1.016 ± 0.0013
ATACTTATTT	1.03 ± 0.018
ATACTTTAAA	1.17 ± 0.1
ATACTTTTGC	0.952 ± 0.034
ATAGAAAAAT	1.003 ± 0.0098
ATAGAAGGGG	1.08 ± 0.14
ATAGAATAGG	0.9867 ± 0.0065
ATAGAATTTA	0.956 ± 0.024
ATAGACGGAT	0.987 ± 0.06
ATAGAGACTA	1.006 ± 0.0078
ATAGAGGCTA	0.992 ± 0.025
ATAGAGTTTG	0.976 ± 0.0014
ATAGATCATC	1.05 ± 0.02
ATAGATGAGG	1.007 ± 0.0046
ATAGATTAGG	0.9854 ± 0.0092

Sequence	switch fluorescence ratio
ATAGCAGGGT	1 ± 0.012
ATAGCAGGTG	2.9 ± 1.1
ATAGCCCGCT	1.03 ± 0.0014
ATAGCCGTGC	1.017 ± 0.0054
ATAGCGGTCG	1.01 ± 0.07
ATAGCTGTTA	0.978 ± 0.05
ATAGCTTGGG	0.985 ± 0.017
ATAGGAACGT	1.08 ± 0.1
ATAGGAATTT	0.993 ± 0.021
ATAGGACAAC	1.038 ± 0.0081
ATAGGACGGG	0.967 ± 0.028
ATAGGAGTGC	1.01 ± 0.023
ATAGGATATA	1.03 ± 0.018
ATAGGATCAC	1.02 ± 0.028
ATAGGATCAT	0.975 ± 0.03
ATAGGATCGC	0.99 ± 0.039
ATAGGATTTA	0.989 ± 0.013
ATAGGCATTT	1.03 ± 0.013
ATAGGGAAGT	1 ± 0.017
ATAGGGAATG	0.9986 ± 0.007
ATAGGGAGGG	1.012 ± 0.0048
ATAGGGCACA	1.08 ± 0.015
ATAGGGGACG	1.01 ± 0.049

Sequence	switch fluorescence ratio
ATAGGGGTGG	1.03 ± 0.018
ATAGGGTGCG	1 ± 0.03
ATAGGTAGGT	0.996 ± 0.004
ATAGGTAGTC	0.996 ± 0.02
ATAGGTCCCG	1 ± 0.017
ATAGGTGCGG	0.985 ± 0.021
ATAGTAATCT	0.993 ± 0.056
ATAGTACAGG	1.08 ± 0.011
ATAGTACTCG	1.06 ± 0.057
ATAGTAGGTT	1.01 ± 0.017
ATAGTCAATT	0.993 ± 0.071
ATAGTCACAT	1.02 ± 0.021
ATAGTCAGTA	1.01 ± 0.019
ATAGTCCAGC	0.988 ± 0.035
ATAGTCTACG	1.02 ± 0.042
ATAGTGGAGA	1.01 ± 0.024
ATAGTGGGAG	0.992 ± 0.04
ATAGTGGGTC	1.04 ± 0.025
ATAGTGTGTG	1.004 ± 0.008
ATAGTTAGGT	1.03 ± 0.029
ATAGTTGGTG	0.994 ± 0.029
ATAGTTGTGA	0.987 ± 0.024
ATATAAAATG	0.986 ± 0.0046

Sequence	switch fluorescence ratio
ATATAAAGGA	1.01 ± 0.024
ATATAAATGT	1.019 ± 0.0066
ATATAAATTA	1.01 ± 0.05
ATATAAGGGA	1 ± 0.019
ATATAAGGGC	1 ± 0.074
ATATACATGG	1.01 ± 0.035
ATATACTAGA	1.03 ± 0.049
ATATAGAAAG	1.02 ± 0.045
ATATAGTAAT	0.9842 ± 0.0078
ATATATAAGT	0.972 ± 0.011
ATATATACTG	1.05 ± 0.071
ATATATGCGG	1.11 ± 0.12
ATATATGCTC	1.01 ± 0.016
ATATATTGTA	1.001 ± 0.0059
ATATATTTTG	0.972 ± 0.03
ATATCAGCAT	1.065 ± 0.005
ATATCGACGT	1 ± 0.013
ATATCTAAGT	0.9984 ± 0.0034
ATATCTTAGT	1.017 ± 0.00089
ATATCTTTCG	1.02 ± 0.014
ATATGACGGT	0.98 ± 0.029
ATATGAGGCG	1.05 ± 0.042
ATATGAGTGC	0.951 ± 0.07

Sequence	switch fluorescence ratio
ATATGGATGG	0.986 ± 0.025
ATATGGGGGC	0.972 ± 0.059
ATATGGGTTT	1.01 ± 0.033
ATATGGTCAT	0.9719 ± 0.0021
ATATGTGATG	0.997 ± 0.021
ATATGTGGGC	0.9577 ± 0.0068
ATATTAAAAG	0.9959 ± 0.0043
ATATTAAGTT	1.01 ± 0.003
ATATTACTAG	0.989 ± 0.035
ATATTAGAAC	1.01 ± 0.0027
ATATTAGAGG	0.998 ± 0.037
ATATTAGGGT	1.01 ± 0.042
ATATTAGTCT	1.001 ± 0.0035
ATATTATGGA	1 ± 0.02
ATATTATTCT	1.005 ± 0.0096
ATATTATTGA	0.9818 ± 0.0049
ATATTCAGGG	1.01 ± 0.031
ATATTCGCTC	1.12 ± 0.1
ATATTCTTGG	0.9852 ± 0.0026
ATATTGCCTA	1.003 ± 0.0074
ATATTGTCGT	1.011 ± 0.0053
ATATTGTTGT	0.997 ± 0.057
ATATTGTTTG	1.01 ± 0.1

Sequence	switch fluorescence ratio
ATATTTATAG	0.9944 ± 0.0071
ATATTTCACT	1.03 ± 0.012
ATATTTGACA	1.01 ± 0.026
ATATTTGGGG	1.02 ± 0.046
ATATTTGGTT	0.985 ± 0.034
ATATTTTAAG	0.994 ± 0.034
ATCAAAGGTT	1.03 ± 0.051
ATCAAGGGGG	0.992 ± 0.034
ATCAAGGGTG	1.11 ± 0.013
ATCAAGGTTC	0.9917 ± 0.0095
ATCAAGTCTT	0.99 ± 0.016
ATCAATATGT	0.996 ± 0.029
ATCAATTGTC	1.07 ± 0.025
ATCACCGCGC	1.59 ± 0.093
ATCACTGGGC	1.1 ± 0.092
ATCACTGGGT	0.9976 ± 0.0051
ATCAGATGAT	1.0009 ± 0.00017
ATCAGCTGTG	1.02 ± 0.024
ATCAGGAAGT	0.992 ± 0.062
